The target of the data set is T1, heat shock factor (HSF) (UniProt P22813 P22813:1-691).
T1 sequence: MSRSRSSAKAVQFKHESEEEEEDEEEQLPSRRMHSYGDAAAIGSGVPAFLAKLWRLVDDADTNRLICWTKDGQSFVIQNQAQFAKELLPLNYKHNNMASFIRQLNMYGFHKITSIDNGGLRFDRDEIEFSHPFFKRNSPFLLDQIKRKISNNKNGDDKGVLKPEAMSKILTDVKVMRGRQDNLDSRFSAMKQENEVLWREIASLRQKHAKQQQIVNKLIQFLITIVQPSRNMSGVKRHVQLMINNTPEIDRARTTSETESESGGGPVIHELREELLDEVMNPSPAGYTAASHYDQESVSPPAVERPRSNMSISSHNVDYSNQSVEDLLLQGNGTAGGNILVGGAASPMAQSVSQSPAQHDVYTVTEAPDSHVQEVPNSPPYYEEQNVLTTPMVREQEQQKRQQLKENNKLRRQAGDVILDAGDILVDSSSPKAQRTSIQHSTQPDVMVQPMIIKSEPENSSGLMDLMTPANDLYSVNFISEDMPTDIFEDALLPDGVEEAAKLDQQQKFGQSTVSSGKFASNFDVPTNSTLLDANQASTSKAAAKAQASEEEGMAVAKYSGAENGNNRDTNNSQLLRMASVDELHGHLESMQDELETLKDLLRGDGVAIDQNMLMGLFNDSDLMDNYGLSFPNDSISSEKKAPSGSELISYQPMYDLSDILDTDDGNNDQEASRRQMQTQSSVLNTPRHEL
The experiment in a line: EMSA; estimated from EMSA data; construct not given. The conditions noted are these: tags: fusion construct from E. coli (GST, His or MBP; exact one not specified for this assay); chain copies: 3.

B1: RA1-HSF (14-1) (ssRNA)
RNA: GGGAGAAUUCAACUGCCAUCUAGGCAUCGCGAUACAAAAUUAAGUUGAACGCGAGUUCUCCAUCUAGUACUACAAGCUUCUGGACUCGAU
With B1, the Kd was 20 nM.

The values are drawn from patent publication US20040053310, “Exhaustive selection of RNA aptamers against complex targets” (published 2004).
